Results from patent US20150368338A1 (Janssen / Centocor, published 2015).
Where a chain is given by its changes, count along the chain named.

T1: IFN-αF (human, UniProt P01568 24-189)
T1 construct: also called IFN-α21; alpha F
T1 chain: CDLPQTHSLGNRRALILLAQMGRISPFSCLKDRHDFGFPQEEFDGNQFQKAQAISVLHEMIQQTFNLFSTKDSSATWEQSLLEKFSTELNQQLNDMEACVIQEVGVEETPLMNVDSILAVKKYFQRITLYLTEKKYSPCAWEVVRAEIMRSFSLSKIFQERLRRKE

B1: IFWM3311 (antibody, V domains shown)
VH: EVQLVQSGAEVKKPGESLKISCKGSGYSFTSYWIGWVRQMPGKGLEWMGIIDPSDSDTRYSPSFQGQVTISADKSISTAYLQWSSLKASDTAMYYCARHPGLNWAPDFDYWGQGTLVTVSS
VL: DIQMTQSPSSLSASVGDRVTITCRASQSIDDFLNWYQQKPGKAPKLLIYFASSLQSGVPSRFSGSGSGTDFTLTISSLQPEDFATYYCQQSHTLPLTFGQGTKVEIK
notes: VH IFWH591, VL IFWL1009; converted mAb; also called IFWB3046
B2: IFWM3316 (antibody, V domains shown)
VH: B1 VH
VL: B1 VL with D30N, D31E, H92Y, T93S, L94T
notes: VH IFWH591, VL IFWL1022; converted mAb; also called IFWB3051
B3: IFWM3318 (antibody, V domains shown)
VH: B1 VH
VL: B1 VL with D30S, D31E, F32Y, T93S, L96I
notes: VH IFWH591, VL IFWL1038; converted mAb; also called IFWB3053
B4: IFWM3342 (antibody, V domains shown)
VH: B1 VH with R59A
VL: B1 VL with D30G, D31S, H92Y, T93S, L94I, L96I
notes: VH IFWH624, VL IFWL992; converted mAb; also called IFWB3077
B5: IFWM3343 (antibody, V domains shown)
VH: B1 VH with R59A
VL: B1 VL with D30G, D31S, F32A, H92Y, T93D, L94F
notes: VH IFWH624, VL IFWL997; converted mAb; also called IFWB3078
B6: IFWM3340 (antibody, V domains shown)
VH: B1 VH with R59A
VL: B1 VL with D31G, F32S, H92Y, T93D, L94F
notes: VH IFWH624, VL IFWL983; converted mAb; also called IFWB3075
B7: IFWM3322 (antibody, V domains shown)
VH: B1 VH
VL: B1 VL with D30A, T93S, L94F
notes: VH IFWH591, VL IFWL1051; converted mAb; also called IFWB3057
B8: IFWM3344 (antibody, V domains shown)
VH: B1 VH with R59A
VL: B1 VL with D30S, D31K, H92N, L96F
notes: VH IFWH624, VL IFWL998; converted mAb; also called IFWB3079
B9: IFWM3348 (antibody, V domains shown)
VH: B1 VH with R59A
VL: B1 VL with D30G, D31G, H92Y, T93S, L96I
notes: VH IFWH624, VL IFWL1006; converted mAb; also called IFWB3083
B10: IFWM3346 (antibody, V domains shown)
VH: B1 VH with R59A
VL: B1 VL with D30G, S91A, H92L, T93D, L94F
notes: VH IFWH624, VL IFWL1001; converted mAb; also called IFWB3081
B11: IFWM3345 (antibody, V domains shown)
VH: B1 VH with R59A
VL: B1 VL with D30T, D31N, H92L, T93D, L94F
notes: VH IFWH624, VL IFWL1000; converted mAb; also called IFWB3080
B12: IFWM3320 (antibody, V domains shown)
VH: B1 VH
VL: B1 VL with D30N, D31G, F32V, T93D, L94F
notes: VH IFWH591, VL IFWL1047; converted mAb; also called IFWB3055
B13: IFWM3325 (antibody, V domains shown)
VH: B1 VH
VL: B1 VL with D30R, D31N, F32S, Y49K, F50W, S91L, H92Y, T93D, L94W
notes: VH IFWH591, VL IFWL1060; converted mAb; also called IFWB3060
B14: IFWM3341 (antibody, V domains shown)
VH: B1 VH with R59A
VL: B1 VL with D30N, D31R, F50A, S91A, H92I, T93D, L96F
notes: VH IFWH624, VL IFWL991; converted mAb; also called IFWB3076
B15: IFWM3319 (antibody, V domains shown)
VH: B1 VH
VL: B1 VL with D30T, D31G, F50A, T93D, L94F
notes: VH IFWH591, VL IFWL1041; converted mAb; also called IFWB3054
B16: IFWM3317 (antibody, V domains shown)
VH: B1 VH
VL: B1 VL with D30S, D31K, H92Y, T93D, L94F, L96I
notes: VH IFWH591, VL IFWL1026; converted mAb; also called IFWB3052
B17: IFWM3315 (antibody, V domains shown)
VH: B1 VH
VL: B1 VL with D30T, D31S, F32S, H92F, T93D
notes: VH IFWH591, VL IFWL1017; converted mAb; also called IFWB3050
B18: IFWM3347 (antibody, V domains shown)
VH: B1 VH with R59A
VL: B1 VL with D30A, D31E, H92I, T93D, L94F
notes: VH IFWH624, VL IFWL1004; converted mAb; also called IFWB3082
B19: IFWM3314 (antibody, V domains shown)
VH: B1 VH
VL: B1 VL with D31R, F32A, H92F, T93D, L94F
notes: VH IFWH591, VL IFWL1014; converted mAb; also called IFWB3049
B20: IFWM3321 (antibody, V domains shown)
VH: B1 VH
VL: B1 VL with D31G, F32A, S91A, H92Y, T93D, L94F
notes: VH IFWH591, VL IFWL1048; converted mAb; also called IFWB3056

Target: T2, IFN-αG (human, UniProt P01569 24-189)
T2 construct: also called IFN-α5; alpha G
Test: ProteOn, one antigen concentration
From the text: (§1) To increase the assay throughput, only one concentration of the individual antigen was used.

Binder | Kd [nM]
B1 | 0.056
B2 | 0.087
B3 | 0.04
B4 | 0.014
B5 | 0.06
B6 | 0.024
B7 | 0.058
B8 | 0.112
B9 | 0.02
B10 | 0.086
B11 | 0.092
B12 | 0.033
B13 | 0.033
B14 | 0.063
B15 | 0.049
B16 | 0.126
B17 | 0.061
B18 | 0.084
B19 | 0.028
B20 | 0.036

Target: T3, IFN-αWA (human, UniProt P05015 24-189)
T3 construct: also called IFN-α16; alpha WA
Test: ProteOn, one antigen concentration
From the text: as §1

Binder | Kd [nM]
B1 | 0.072
B2 | 0.073
B3 | 0.091
B4 | 0.095
B5 | 0.083
B6 | 0.056
B7 | 0.086
B8 | 0.105
B9 | 0.049
B10 | 0.17
B11 | 0.111
B12 | 0.041
B13 | 0.091
B14 | 0.134
B15 | 0.107
B16 | 0.162
B17 | 0.115
B18 | 0.125
B19 | 0.042
B20 | 0.058

Target: T4, IFN-αC (human, UniProt P01566 24-189)
T4 construct: also called IFN-α10; alpha C
Test: ProteOn, one antigen concentration
From the text: as §1

Binder | Kd [nM]
B1 | 0.036
B2 | 0.042
B3 | 0.03
B4 | 0.142
B5 | 0.065
B6 | 0.048
B7 | 0.042
B8 | 0.161
B9 | 0.083
B10 | 0.105
B11 | 0.072
B12 | 0.02
B13 | 0.022
B14 | 0.104
B15 | 0.052
B16 | 0.133
B17 | 0.059
B18 | 0.096
B19 | 0.026
B20 | 0.033

Target: T5, IFN-α4a (human, UniProt P05014 24-189)
T5 construct: also called IFN-αM1
Test: ProteOn, one antigen concentration
From the text: as §1

Binder | Kd [nM]
B1 | 0.223
B2 | 0.168
B3 | 0.252
B4 | 0.589
B5 | 0.237
B6 | 0.201
B7 | 0.272
B8 | 0.442
B9 | 0.089
B10 | 0.48
B11 | 0.324
B12 | 0.089
B13 | 0.111
B14 | 0.445
B15 | 0.274
B16 | 0.37
B17 | 0.24
B18 | 0.35
B19 | 0.092
B20 | 0.159

Target: T6, IFN-αJ1 (human, UniProt P01567 24-189)
T6 construct: also called IFN-α7; alpha J1
Test: ProteOn, one antigen concentration
From the text: as §1

Binder | Kd [nM]
B1 | 0.056
B2 | 0.07
B3 | 0.119
B4 | 0.269
B5 | 0.157
B6 | 0.124
B7 | 0.127
B8 | 0.274
B9 | 0.164
B10 | 0.505
B11 | 0.169
B12 | 0.061
B13 | 0.092
B14 | 0.275
B15 | 0.151
B16 | 0.206
B17 | 0.134
B18 | 0.411
B19 | 0.039
B20 | 0.079

Target: T1, IFN-αF
Test: ProteOn, one antigen concentration
From the text: as §1

Binder | Kd [nM]
B1 | 0.021
B2 | 0.033
B3 | 0.034
B4 | 0.164
B5 | 0.063
B6 | 0.041
B7 | 0.033
B8 | 0.14
B9 | 0.064
B10 | 0.117
B11 | 0.12
B12 | 0.013
B13 | 0.032
B14 | 0.088
B15 | 0.044
B16 | 0.121
B17 | 0.05
B18 | 0.136
B19 | 0.021
B20 | 0.024

Target: T7, human IFN-ω (human, UniProt P05000 24-195)
T7 construct: also called interferon omega
Test: ProteOn, one antigen concentration
From the text: as §1

Binder | Kd [nM]
B1 | 0.012
B2 | 0.042
B3 | 0.018
B4 | 0.068
B5 | 0.02
B6 | 0.004
B7 | 0.04
B8 | 0.078
B9 | 0.05
B10 | 0.052
B11 | 0.004
B12 | 0.021
B13 | 0.011
B14 | 0.008
B15 | 0.034
B16 | 0.016
B17 | 0.063
B18 | 0.048
B19 | 0.02
B20 | 0.033
